B1: 合成ペプチドP100 (peptide)
peptide: EINCTRTQNT
B2: 合成ペプチドP110 (peptide)
peptide: KCRCKPNFFC

Biological target: 抗Fasモノクローナル抗体HFE7A(マウス−マウスハイブリドーマHFE7A、FERM BP−5828が産生)
Assay: 200 µg peptide pre-incubated with 0.25 µg HFE7A, then flow cytometry on WR19L12a cells; D355-364 control set to 100 % fluorescence

Binder	HFE7AとWR19L12a細胞との結合の阻害(%)
B1	50 %
B2	60 %

Reference: patent JP2000169393A
